The results in this text go back to IntAct's records for PubMed 31515488.

To fix the notation:
B1: Chorion-specific transcription factor GCMb (Homo sapiens), O75603 (parent)
chain: MPAAAVQEAVGVCSYGMQLSWDINDPQMPQELALFDQFREWPDGYVRFIYSSDEKKAQRHLSGWAMRNTNNHNGHILKKSCLGVVVCTQACTLPDGSRLQLRPAICDKARLKQQKKACPNCHSALELIPCRGHSGYPVTNFWRLDGNAIFFQAKGVHDHPRPESKSETEARRSAIKRQMASFYQPQKKRIRESEAEENQDSSGHFSNIPPLENPEDFDIVTETSFPIPGQPCPSFPKSDVYKATCDLATFQGDKMPPFQKYSSPRIYLPRPPCSYELANPGYTNSSPYPTLYKDSTSIPNDTDWVHLNTLQCNVNSYSSYERSFDFTNKQHGWKPALGKPSLVERTNHGQFQAMATRPYYNPELPCRYLTTPPPGAPALQTVITTTTKVSYQAYQPPAMKYSDSVREVKSLSSCNYAPEDTGMSVYPEPWGPPVTVTRAASPSGPPPMKIAGDCRAIRPTVAIPHEPVSSRTDEAETWDVCLSGLGSAVSYSDRVGPFFTYNNEDF
B2: Bleomycin hydrolase (Homo sapiens), Q13867 (parent)
chain: MSSSGLNSEKVAALIQKLNSDPQFVLAQNVGTTHDLLDICLKRATVQRAQHVFQHAVPQEGKPITNQKSSGRCWIFSCLNVMRLPFMKKLNIEEFEFSQSYLFFWDKVERCYFFLSAFVDTAQRKEPEDGRLVQFLLMNPANDGGQWDMLVNIVEKYGVIPKKCFPESYTTEATRRMNDILNHKMREFCIRLRNLVHSGATKGEISATQDVMMEEIFRVVCICLGNPPETFTWEYRDKDKNYQKIGPITPLEFYREHVKPLFNMEDKICLVNDPRPQHKYNKLYTVEYLSNMVGGRKTLYNNQPIDFLKKMVAASIKDGEAVWFGCDVGKHFNSKLGLSDMNLYDHELVFGVSLKNMNKAERLTFGESLMTHAMTFTAVSEKDDQDGAFTKWRVENSWGEDHGHKGYLCMTDEWFSEYVYEVVVDRKHVPEEVLAVLEQEPIILPAWDPMGALAE
B3: Coiled-coil domain-containing protein 185 (Homo sapiens), Q8N715 (parent)
chain: MAGFSHFSQPPYRDLWEPPRPGGERESTQRLGGQRSGADSTACSRAGTPGAESEAGACWLHPHCSFTPRPRRRGCSDSLRGSRSLSDVARRPLERSRKHRPRSRRLEDAWGETGTKPRPAWQPQTQLPPQRPQPCPHYPLAQGDSPPPCPGGAGTPLSGTFRVEKAQGGDQWAVPLGRHLGRWSPSSVPSERSSVPSQKFKRHSACVCAQKRDSSDQVESLASRDSQPLASSKEMRSPHTQVLKSKLEEVVVSSQDQQIVALVLTRLKKAQRIRELQQQAAKAWEELKRSDQKVQMTLERERRLLLRQSQEQWQEKEQRKTLQSPEQRGLRRDSQRKNVPPGESRWKEQPEDQESPRQEKLEKARAQAEHRKQCQVRRLREQEKMLRNLREQHSLQLQRRLVEACRKRHLHAVEGQKKVQDTNLSSLINYQARKVLMDCQAKAEELLRQLSLEQSFQRSQEIHQGLRKERQRELREKAQKEEEQLQQARWRAGESEEQRKMRKRILVELADEKIRQARSHVHKTTRDKVQHLRELNHLREKNHHILKLKAEKEEKCHIEGIKEAIKKKEQRVQHISQGKDPNFQEFQKLPQASRREERAPPNSSLDQMVLEAQLRACQQNRGY
B4: Zinc finger protein 544 (Homo sapiens), Q6NX49 (parent)
chain: MEARSMLVPPQASVCFEDVAMAFTQEEWEQLDLAQRTLYREVTLETWEHIVSLGLFLSKSDVISQLEQEEDLCRAEQEAPRDWKATLEENRLNSEKDRAREELSHHVEVYRSGPEEPPSLVLGKVQDQSNQLREHQENSLRFMVLTSERLFAQREHCELELGGGYSLPSTLSLLPTTLPTSTGFPKPNSQVKELKQNSAFINHEKNGADGKHCESHQCARAFCQSIYLSKLGNVETGKKNPYEYIVSGDSLNYGSSLCFHGRTFSVKKSDDCKDYGNLFSHSVSLNEQKPVHFGKSQYECDECRETCSESLCLVQTERSGPGETPFRCEERCAAFPMASSFSDCNIIQTTEKPSVCNQCGKSFSCCKLIHQRTHTGEKPFECTQCGKSFSQSYDLVIHQRTHTGEKPYECDLCGKSFTQRSKLITHQRIHTGEKPYQCIECRKSFRWNSNLIVHQRIHTGEKPYECTHCGKSFSQSYELVTHKRTHTGEKPFKCTQCGKSFSQKYDLVVHQRTHTGEKPYECNLCGKSFSQSSKLITHQRIHTGEKPYQCIECGKSFRWNSNLVIHQRIHTGEKPYDCTHCGKSFSQSYQLVAHKRTHTGEKPYECNECGKAFNRSTQLIRHLQIHTGEKPYKCNQCNKAFARSSYLVMHQRTHTGEKPFECSQCGKAFSGSSNLLSHHRIHSGEKPYECSDCGKSFRQQSQLVVHRRTHTGEKP
partner: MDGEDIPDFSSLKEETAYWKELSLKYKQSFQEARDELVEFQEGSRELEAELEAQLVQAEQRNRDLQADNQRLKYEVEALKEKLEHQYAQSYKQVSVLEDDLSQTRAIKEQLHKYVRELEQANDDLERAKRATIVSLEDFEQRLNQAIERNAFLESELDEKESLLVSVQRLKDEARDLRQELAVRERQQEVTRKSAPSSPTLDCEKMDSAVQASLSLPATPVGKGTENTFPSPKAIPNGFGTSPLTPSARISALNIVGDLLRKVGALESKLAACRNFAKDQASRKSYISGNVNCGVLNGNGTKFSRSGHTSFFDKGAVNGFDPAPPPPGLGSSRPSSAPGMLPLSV
B5: WASH complex subunit 3 (Homo sapiens), Q9Y3C0 (parent)
chain: MDEDGLPLMGSGIDLTKVPAIQQKRTVAFLNQFVVHTVQFLNRFSTVCEEKLADLSLRIQQIETTLNILDAKLSSIPGLDDVTVEVSPLNVTSVTNGAHPEATSEQPQQNSTQDSGLQESEVSAENILTVAKDPRYARYLKMVQVGVPVMAIRNKMISEGLDPDLLERPDAPVPDGESEKTVEESSDSESSFSD
partner: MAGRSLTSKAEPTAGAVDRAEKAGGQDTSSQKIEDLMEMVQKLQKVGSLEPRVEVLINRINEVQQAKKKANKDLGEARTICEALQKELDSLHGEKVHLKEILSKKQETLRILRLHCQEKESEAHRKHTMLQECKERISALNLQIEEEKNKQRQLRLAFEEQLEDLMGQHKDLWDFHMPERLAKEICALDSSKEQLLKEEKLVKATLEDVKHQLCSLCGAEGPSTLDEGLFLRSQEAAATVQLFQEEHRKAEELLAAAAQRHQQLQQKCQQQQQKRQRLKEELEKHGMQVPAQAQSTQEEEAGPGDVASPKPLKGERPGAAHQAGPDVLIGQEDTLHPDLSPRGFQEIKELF
B6: Histone-lysine N-methyltransferase SMYD1 (Homo sapiens), Q8NB12 (parent)
chain: MTIGRMENVEVFTAEGKGRGLKATKEFWAADIIFAERAYSAVVFDSLVNFVCHTCFKRQEKLHRCGQCKFAHYCDRTCQKDAWLNHKNECSAIKRYGKVPNENIRLAARIMWRVEREGTGLTEGCLVSVDDLQNHVEHFGEEEQKDLRVDVDTFLQYWPPQSQQFSMQYISHIFGVINCNGFTLSDQRGLQAVGVGIFPNLGLVNHDCWPNCTVIFNNGNHEAVKSMFHTQMRIELRALGKISEGEELTVSYIDFLNVSEERKRQLKKQYYFDCTCEHCQKKLKDDLFLGVKDNPKPSQEVVKEMIQFSKDTLEKIDKARSEGLYHEVVKLCRECLEKQEPVFADTNIYMLRMLSIVSEVLSYLQAFEEASFYARRMVDGYMKLYHPNNAQLGMAVMRAGLTNWHAGNIEVGHGMICKAYAILLVTHGPSHPITKDLEAMRVQTEMELRMFRQNEFMYYKMREAALNNQPMQVMAEPSNEPSPALFHKKQ
partner: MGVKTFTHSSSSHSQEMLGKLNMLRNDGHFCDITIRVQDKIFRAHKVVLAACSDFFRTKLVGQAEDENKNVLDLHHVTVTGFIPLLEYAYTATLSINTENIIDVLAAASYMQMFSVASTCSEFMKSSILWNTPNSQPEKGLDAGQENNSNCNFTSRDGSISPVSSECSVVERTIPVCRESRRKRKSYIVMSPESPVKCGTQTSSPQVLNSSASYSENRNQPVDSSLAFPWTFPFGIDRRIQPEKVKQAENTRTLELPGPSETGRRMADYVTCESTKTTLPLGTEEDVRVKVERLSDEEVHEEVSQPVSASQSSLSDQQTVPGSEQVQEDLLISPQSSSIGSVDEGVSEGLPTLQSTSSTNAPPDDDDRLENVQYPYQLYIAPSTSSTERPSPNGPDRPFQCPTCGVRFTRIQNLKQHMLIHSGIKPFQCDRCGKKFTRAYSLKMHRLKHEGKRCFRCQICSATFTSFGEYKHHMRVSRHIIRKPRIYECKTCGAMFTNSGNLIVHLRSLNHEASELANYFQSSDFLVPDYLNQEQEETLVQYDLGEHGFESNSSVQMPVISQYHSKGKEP
B7: Kappa-casein (Homo sapiens), P07498 (parent)
chain: MKSFLLVVNALALTLPFLAVEVQNQKQPACHENDERPFYQKTAPYVPMYYVPNSYPYYGTNLYQRRPAIAINNPYVPRTYYANPAVVRPHAQIPQRQYLPNSHPPTVVRRPNLHPSFIAIPPKKIQDKIIIPTINTIATVEPTPAPATEPTVDSVVTPEAFSESIITSTPETTTVAVTPPTA

Variants of B1 are the subject of the first test. Particulars: with crx_human CRX.
With D53N, the “effect of a mutation on the interaction” value is “with no effect”.

Variants of B1 are the subject of the next test. To be noted: with fhl3_human FHL3, Q13643.
fhl3_human FHL3, Q13643, sequence (Q13643 whole entry): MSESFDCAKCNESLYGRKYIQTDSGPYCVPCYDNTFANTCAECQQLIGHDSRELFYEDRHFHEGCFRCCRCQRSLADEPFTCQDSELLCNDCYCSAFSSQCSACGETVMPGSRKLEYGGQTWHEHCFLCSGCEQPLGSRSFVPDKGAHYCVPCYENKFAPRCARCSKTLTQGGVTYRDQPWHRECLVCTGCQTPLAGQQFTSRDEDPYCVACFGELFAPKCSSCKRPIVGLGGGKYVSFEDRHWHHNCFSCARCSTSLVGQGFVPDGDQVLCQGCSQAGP
Consider D53N, for which the “effect of a mutation on the interaction” value was “with no effect”.

The variants in a further test derive from B1. Particulars: with rbpms_human RBPMS.
For the variant D53N, the “effect of a mutation on the interaction” value is “with no effect”.

The variants in a further test derive from B2. Particulars: with nud12_human NUDT12, Q9BQG2.
nud12_human NUDT12, Q9BQG2, sequence (Q9BQG2 whole entry): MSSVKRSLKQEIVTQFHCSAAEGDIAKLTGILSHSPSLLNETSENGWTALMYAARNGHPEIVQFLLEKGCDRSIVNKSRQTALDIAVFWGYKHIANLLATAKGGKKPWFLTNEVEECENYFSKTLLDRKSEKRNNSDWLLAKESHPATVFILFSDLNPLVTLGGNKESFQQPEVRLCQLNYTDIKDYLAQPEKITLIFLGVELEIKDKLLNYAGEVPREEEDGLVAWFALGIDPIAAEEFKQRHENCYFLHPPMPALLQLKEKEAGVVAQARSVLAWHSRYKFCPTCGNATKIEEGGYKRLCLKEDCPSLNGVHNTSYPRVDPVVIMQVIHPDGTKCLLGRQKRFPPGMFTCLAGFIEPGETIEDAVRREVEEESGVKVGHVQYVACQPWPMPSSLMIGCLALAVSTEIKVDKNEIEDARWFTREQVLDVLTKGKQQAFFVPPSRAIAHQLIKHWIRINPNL
Take I443V: the “effect of a mutation on the interaction” value is reported as “with no effect”.

Another test covers variants of B2. To be noted: with ntaq1_human NTAQ1, Q96HA8.
As for E381K, the “effect of a mutation on the interaction” value is reported as “with no effect”.

Variants of B3 are the subject of a further test. To be noted: with KRT15, P19012.
KRT15, P19012, sequence (P19012 whole entry): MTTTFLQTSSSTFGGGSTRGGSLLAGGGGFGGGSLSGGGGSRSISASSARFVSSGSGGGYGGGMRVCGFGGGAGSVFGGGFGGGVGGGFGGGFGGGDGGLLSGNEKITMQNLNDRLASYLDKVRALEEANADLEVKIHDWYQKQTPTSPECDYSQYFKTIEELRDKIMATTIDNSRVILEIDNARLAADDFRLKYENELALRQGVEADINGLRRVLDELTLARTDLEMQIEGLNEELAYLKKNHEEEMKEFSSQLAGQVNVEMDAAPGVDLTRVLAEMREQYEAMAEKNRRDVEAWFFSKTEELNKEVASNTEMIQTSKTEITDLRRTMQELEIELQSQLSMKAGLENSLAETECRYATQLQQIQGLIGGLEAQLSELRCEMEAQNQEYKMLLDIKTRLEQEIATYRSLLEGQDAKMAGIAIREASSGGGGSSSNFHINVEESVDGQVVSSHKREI
As for S603G, the “effect of a mutation on the interaction” value was “with no effect”.

In a further test the parent is B4. Particulars: with ndel1_human NDEL1, Q9GZM8.
Consider K406M, for which the “effect of a mutation on the interaction” value was “with no effect”.

The variants in a further test derive from B5. To be noted: with syce1_human SYCE1, Q8N0S2.
Regarding F44L, the “effect of a mutation on the interaction” value is “with no effect”.

Variants of B6 are the subject of a further test. To be noted: with zbt44_human ZBTB44, Q8NCP5.
Consider H427L, for which the “effect of a mutation on the interaction” value was “with no effect”. For R333Q, the “effect of a mutation on the interaction” value is “with no effect”. Regarding Q164P, the “effect of a mutation on the interaction” value is “with no effect”.

In the next test the parent is B7. To be noted: with rbpms_human RBPMS.
For the variant R96L, the “effect of a mutation on the interaction” value is given as “with no effect”.

Variants of B7 are the subject of a further test. To be noted: with dmrtb_human DMRTB1, Q96MA1.
dmrtb_human DMRTB1, Q96MA1, sequence (Q96MA1 whole entry): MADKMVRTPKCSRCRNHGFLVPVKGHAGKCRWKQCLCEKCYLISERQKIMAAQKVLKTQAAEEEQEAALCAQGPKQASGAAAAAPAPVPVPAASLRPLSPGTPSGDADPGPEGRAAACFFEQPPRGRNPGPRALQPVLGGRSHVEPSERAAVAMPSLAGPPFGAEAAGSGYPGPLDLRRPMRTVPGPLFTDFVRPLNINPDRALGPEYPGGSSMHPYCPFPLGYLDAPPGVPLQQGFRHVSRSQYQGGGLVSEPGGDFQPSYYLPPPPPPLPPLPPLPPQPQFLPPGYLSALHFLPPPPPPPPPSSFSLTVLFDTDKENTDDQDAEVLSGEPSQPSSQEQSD
Turning to R96L, the “effect of a mutation on the interaction” value is reported as “with no effect”.
